# Assay results taken from IntAct's records for PubMed 30260988.
# B1: CXXC motif containing zinc binding protein (Homo sapiens), Q9NWV4 (parent)
# chain: MGKIALQLKATLENITNLRPVGEDFRWYLKMKCGNCGEISDKWQYIRLMDSVALKGGRGSASMVQKCKLCARENSIEILSSTIKPYNAEDNENFKTIVEFECRGLEPVDFQPQAGFAAEGVESGTAFSDINLQEKDWTDYDEKAQESVGIYEVTHQFVKC
# partner: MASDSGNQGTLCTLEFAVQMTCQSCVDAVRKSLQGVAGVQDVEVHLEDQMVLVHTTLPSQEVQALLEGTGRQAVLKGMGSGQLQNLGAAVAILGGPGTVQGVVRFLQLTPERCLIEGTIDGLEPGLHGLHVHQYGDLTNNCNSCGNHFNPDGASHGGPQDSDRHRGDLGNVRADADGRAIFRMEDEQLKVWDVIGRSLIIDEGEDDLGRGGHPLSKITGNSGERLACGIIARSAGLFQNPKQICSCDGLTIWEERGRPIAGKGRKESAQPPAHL
# Legend:
# ccs_human CCS, O14618 [1] = variants of: B1; settings: with ccs_human CCS
# ccs_human CCS, O14618 [2] = variants of: B1; settings: with ccs_human CCS; remark: listed apart in the source
variant,measurement,setting,value
MGKIALQLKATLENITNLRPVGEDFRWYLKMKAGNAGEISDKWQYIRLMDSVALKGGRGSASMVQKCKLCARENSIEILSSTIKPYNAEDNENFKTIVEFECRGLEPVDFQPQAGFAAEGVESGTAFSDINLQEKDWTDYDEKAQESVGIYEVTHQFVKC [C33A;C36A],effect of a mutation on the interaction,"ccs_human CCS, O14618 [1]",with no effect
same,effect of a mutation on the interaction,"ccs_human CCS, O14618 [2]",causing an interaction
MGKIALQLKATLENITNLRPVGEDFRWYLKMKCGNCGEISDKWQYIRLMDSVALKGGRGSASMVQKAKLAARENSIEILSSTIKPYNAEDNENFKTIVEFECRGLEPVDFQPQAGFAAEGVESGTAFSDINLQEKDWTDYDEKAQESVGIYEVTHQFVKC [C67A;C70A],effect of a mutation on the interaction,"ccs_human CCS, O14618 [1]",disrupting interaction strength
same,effect of a mutation on the interaction,"ccs_human CCS, O14618 [2]",causing an interaction
